The results in this text go back to PMC10248732.

In data set [1] the target is T1, GST-OsLUX (Oryza sativa, UniProt Q94DH3 1-238).
T1 sequence: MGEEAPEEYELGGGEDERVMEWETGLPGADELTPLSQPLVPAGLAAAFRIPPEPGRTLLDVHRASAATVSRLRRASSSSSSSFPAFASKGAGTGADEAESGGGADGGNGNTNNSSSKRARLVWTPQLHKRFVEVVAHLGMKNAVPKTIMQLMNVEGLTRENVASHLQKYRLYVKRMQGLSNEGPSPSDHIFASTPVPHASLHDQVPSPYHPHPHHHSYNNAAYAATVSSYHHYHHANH
The experiment in a line: EMSA. Background: A gel shift assay detects complexes by their altered migration in electrophoresis.

The target of data set [2] is T1, GST-OsLUX. The experiment in a line: EMSA. This is another data set of the same source.

Where two headings read alike, the source gives them in different places.

B1: Hd1-P (S4 LBS, 3 copies) (dsDNA)
DNA 1: CGCTGGATTCGACTTGCGCTGGATTCGACTTGCGCTGGATTCGACTTG
DNA 2: CAAGTCGAATCCAGCGCAAGTCGAATCCAGCGCAAGTCGAATCCAGCG
For the molecule B1, in data set [1], the binding result was “binds”.

B2: Ghd7-P (LBS, 3 copies) (dsDNA)
DNA 1: CAGCACGAATCTTGAGCAGCACGAATCTTGAGCAGCACGAATCTTGAG
DNA 2: CTCAAGATTCGTGCTGCTCAAGATTCGTGCTGCTCAAGATTCGTGCTG
Consider B2, for which the binding result in data set [2] is on record as “binds”.
